Laboratory results reported in the supplement of paper PMC9942255.

Test system: Bacillus subtilis DB104 (SP-AmyQ fusion secretion)
Assay: AmyQ secretion efficiency, weighted average sort bin (1 = best secretion, 10 = worst) (bin number (weighted average, 1-10)); higher = lower secretion efficiency
Procedure, shortened: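 The secretion score gives the average bin number weighted by read frequency and normalised to beads per bin, with low-abundance sequences excluded. Bins were 10 equally populated green/red fluorescence ratio fractions of occupied ~65 nL alginate beads, sorted by large-particle flow cytometry. The beads held fluorescein-starch and about 0.3 cells each of an amyE-integrated B. subtilis DB104 library fusing designed signal peptides to mature AmyQ, and they were grown about 13 h at room temperature and stained with nile red before sorting and Illumina sequencing.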

Row | Sequence | AmyQ secretion efficiency
1 | MKKIVSILFMFGLVMRRKRKKPSTVFAADK | 7.34
2 | MRKKTKNRLISSVRKTVVISSLLFPGAAGASSK | 4.05
3 | MKKTIMSFVAVAALSTTAFVLSSFGAHASAKEI | 3.42
4 | MKWMCSICCAAVLLAGGAAQHEAV | 8.16
5 | MRKTIFAFLTGLMMFIFTSSGTITAASASPD | 1.89
6 | MKNMSCKLVVSVTLFFSFLTIGPLLHAQNS | 1.77
7 | MNFKKTVVSALSISALALTVTSISVSGVASAHEI | 3.48
8 | MKKRLIAPMLLSAASLAFFAQEGSAQAAAY | 2.53
9 | MKKRKRKTLVVLFTIVTFGLVSPPAALMADKP | 2.34
10 | MKKRLIGFLVLVPALIMSGITLQEANKK | 7.31
11 | MRKKLKWLSTGTGGTYTQFLFKYQFSNNDS | 7.11
12 | MRKTIFAFLTGLMMFKRRKKKASASPD | 7.76
13 | MRPVFPTSQKKYLFLSCFFGARQTEASASKR | 7.29
14 | MKKIVSILFMFGLVMFFFTFTAIGVFAADK | 4.52
15 | MKVLLSALLLLLFAFEPSASEKKL | 5.89
16 | MKKLLAAGIIGLLTVEDDEDDSFAAEK | 8.23
17 | MLIRKRRNFKRFIAAFLVLALMISLVPADVLAKST | 1.85
18 | MKKLIMALVILGALRKRYISADSS | 7.22
19 | MKNMSCKLVVSVTLFFSFLTIGPLAHAKRK | 2.49
20 | MTMLRKIIGWILLLCIIPLFAFTVIASCKEV | 8.74
21 | MRKRKKLSVAVAASFMSLSISLPGVQAAEG | 1.73
22 | MAIIIAIIAAVIVIAALITFRRRNASPG | 8.26
23 | MRPVFPLILSAVLFLSCFFGARQTENSASKR | 6.14
24 | MKKLLAAGIIGLLTVSIASPSFHAEK | 6.26
25 | MKRLLVSLRVWMVFLMNWVTPDRKTAAAAEE | 6.3
26 | MKRMIVRMTLPLLIVCLAFSSFSASAPVGARAASE | 2.02
27 | MAIIIAIIAAVIVIAALITFNVRNHSPG | 6.69

Row | Sequence | AmyQ secretion efficiency
28 | MKKVMLATALFLGLTPAGANARKR | 6.61
29 | MKRKRLFIFSAILTLSIFAPNETFAQTA | 1.57
30 | MKLSVKIAGVLTVAAAAMVAIMGATAKGN | 8.27
31 | MLKKIALTLCPAIVGSLLAPASAHVS | 4.32
32 | MKKGIIRFLLVSFVLFFALKKRITGVQAAPA | 6.43
33 | MRMLWRSLALCGLALTLAPCTGTAQAAEP | 1.82
34 | MKKKLAAGLTASAIVGTTLVVTPAEAARK | 3.53
35 | MRPVFPLILSAVLFLSCFFGARQTEPSASKR | 5.61
36 | MKLRKVLTGSVLSLGLLKRRRKKAFATSP | 5.35
37 | MKRLLVSLRVWMVFLMNWVTPDRKTQAAAVY | 6.81
38 | MKVPKTMLLSTAAGLLLSLTATSVSAHYK | 5.14
39 | MRKYTVIASILLSFLSVLESKAFPV | 4.71
40 | MKKKKKRIITATTAVVLGSTLFAGAASAQSI | 1.46
41 | MFNRLFRVCFLAALIMAFTLPNSHYAQKP | 6.53
42 | MRSYIKVRRRCRRRLILFVPTALADNS | 6.04
43 | MRMLWRSLALCGLALTLAPCAQSAEP | 2.34
44 | MSFIIIPMTLALGAALTIAPLSFASAEEN | 6.39
45 | MNLRKILLSSALSLGMLVSAAPVLATEE | 1.83
46 | MRPVFPLILSAVLFLSCFFGARQTETSASKR | 5.36
47 | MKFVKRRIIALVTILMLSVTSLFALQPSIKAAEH | 3.57
48 | MKKGIIRFLLVSFVLFFALSTGITGSQAAPA | 4.62
49 | MKRQKQKASLVLFAVVFVFAVKGAPAKAETH | 2.05
50 | MRKKTKNRLISSVLSTVVISSLLFPQEAGASSK | 1.83
51 | MKRYRQKCLLLVTIMFLGVLFGMQQANHG | 5.69
52 | MNKLKRLSMLKKKKASVFIFSSHALAAQY | 6.52
53 | MKKWMALTSGLFLAAAVLLCLMVPQQIQGASS | 4.17
